B1: TPR t1 (parent)
chain: GACCAAUCUGCCCUCAGAGCUCGAGAACAUCUUCGGAUGCAGAGGAGGCAGGCUUCGGUGGCGCGAUAGCGCCAACGUCCUCAACCUCCAAUGCAUCCCACCACAUGAUGAUGCCUGAAGAGCCUUGGUUUUUUG

The variants in this series derive from B1. Description: polymerase ribozyme fitness, log enrichment relative to wild type (log ratio); higher = more active; in vitro selection for triplet polymerase activity. In outline: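 One round of in vitro selection, in triplicate, was applied to PCR-built, transcribed mutant libraries of each subunit of a heterodimeric triplet polymerase ribozyme. The steps were annealing with a biotinylated primer, partner subunit and triplets, incubation frozen at −7 °C, gel excision of extended constructs, streptavidin-bead capture and RT-PCR. Fitness is the logarithm, base 2, of genotype enrichment over wild-type enrichment from inverse-variance-weighted replicate averages of Illumina-sequenced inputs and outputs, keeping genotypes with ≥10 input reads and ≥1 read per output.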
Regarding C4U G52U C73A, the “polymerase ribozyme fitness (log ratio)” value was -0.845. Next, A5C G71U A75U C98U: -1.25.

A5C C72U: the “polymerase ribozyme fitness (log ratio)” value is -1.39. Consider C4G A66G C72U C80U C123A, for which the “polymerase ribozyme fitness (log ratio)” value is -2.88. Turning to A5C C40U, the “polymerase ribozyme fitness (log ratio)” value is -1.31.

Turning to A5C C40G, the “polymerase ribozyme fitness (log ratio)” value is -1.78. In the case of A5C, the “polymerase ribozyme fitness (log ratio)” value was -0.52. With C4U C8G C53U, the “polymerase ribozyme fitness (log ratio)” value worked out at 0.711. For the variant A5C C15G G57U, the “polymerase ribozyme fitness (log ratio)” value was -3.53. Consider A5C G17A A41G C53A C56A C70U G71A U112C, for which the “polymerase ribozyme fitness (log ratio)” value is -6.41. Take C4U G71A G77A: the “polymerase ribozyme fitness (log ratio)” value is -2.96. On to C4G A5U C76U, for which the “polymerase ribozyme fitness (log ratio)” value was -2.75. Consider C4U U7A G93C C102A, for which the “polymerase ribozyme fitness (log ratio)” value was -3.52.

For A5C A50C A74U U96G, the “polymerase ribozyme fitness (log ratio)” value is -3.17.

Consider C4U A43C G45A G69U C124A, for which the “polymerase ribozyme fitness (log ratio)” value turned out to be 0.59. With C4U U9G C11A C72U A74U U106A the figure was -0.724; with C4U C53U C64U A84G, -1.67. Turning to A5C C12A C72U G113C, the “polymerase ribozyme fitness (log ratio)” value was -3.72. In the case of C4U U96A, the “polymerase ribozyme fitness (log ratio)” value is -1.6. As to C4U G71U C114G U132A, the “polymerase ribozyme fitness (log ratio)” value was -3.02. In the case of C4G C8G A50U G113C C115U, the “polymerase ribozyme fitness (log ratio)” value is -5.07. For the variant A5C C20A A37G A84U A90C U109G, the “polymerase ribozyme fitness (log ratio)” value is -4.05.

With A5C G17A G36U, the “polymerase ribozyme fitness (log ratio)” value is -5.9. For A5C C73G, the “polymerase ribozyme fitness (log ratio)” value is -0.545. Regarding C4U C13U G42U U55C G71A, the “polymerase ribozyme fitness (log ratio)” value is -2.58. As for C4G G52A C72U A91U A119U, the “polymerase ribozyme fitness (log ratio)” value is -4.02. In the case of A5C C12A U96C G128C, the “polymerase ribozyme fitness (log ratio)” value was -2.92. C4U A100U: the “polymerase ribozyme fitness (log ratio)” value is -1.08. Turning to C4U C56G A111U, the “polymerase ribozyme fitness (log ratio)” value was -2.42.

For the variant A5C G60A G61A C114A, the “polymerase ribozyme fitness (log ratio)” value was -4.47.

Regarding C4U A37G, the “polymerase ribozyme fitness (log ratio)” value is -0.871. In the case of C4G G17U C53U C56A, the “polymerase ribozyme fitness (log ratio)” value is -3.68.

On to C4U G71A, for which the “polymerase ribozyme fitness (log ratio)” value is -0.833. For C4G C8A C89A G120C, the “polymerase ribozyme fitness (log ratio)” value is -0.0855. A5C C53G C64U C94U: the “polymerase ribozyme fitness (log ratio)” value was -1.07. As to C4U C115A, the “polymerase ribozyme fitness (log ratio)” value was -1.18. For A5C G45U G93A A121U, the “polymerase ribozyme fitness (log ratio)” value was -0.00844.

In the case of C4G C53A C56U C99U U130G, the “polymerase ribozyme fitness (log ratio)” value is -5.15. Consider A5C A46U U106C, for which the “polymerase ribozyme fitness (log ratio)” value is -1.72. Turning to C4U U87C, the “polymerase ribozyme fitness (log ratio)” value was -0.694. As for C4U G58A C124U, the “polymerase ribozyme fitness (log ratio)” value stood at 0.263. Take C4G C8G G44A U131G: the “polymerase ribozyme fitness (log ratio)” value is -3.14.

As to C4U G36A C70A G71A A90G U112G, the “polymerase ribozyme fitness (log ratio)” value was -6.28.

For the variant A5C G63C A75C C94A G113C G122U, the “polymerase ribozyme fitness (log ratio)” value was -4.55. As to C4G U9G G10C, the “polymerase ribozyme fitness (log ratio)” value is -0.357.

Consider A5C C8U C62U, for which the “polymerase ribozyme fitness (log ratio)” value was -0.266.

As for C4U A43C G45A A74U C124A, the “polymerase ribozyme fitness (log ratio)” value was -2.29. For the variant C4U G63C C76A A91C A100C C115G C123A, the “polymerase ribozyme fitness (log ratio)” value was -4.89. For C4U C49A G60C C80A C115A, the “polymerase ribozyme fitness (log ratio)” value was -5.4. As to A5C C64A U112C, the “polymerase ribozyme fitness (log ratio)” value is -6.42. On to C4G U9G U116C G128U U131C, for which the “polymerase ribozyme fitness (log ratio)” value was -0.342. C4G A26U A75U: the “polymerase ribozyme fitness (log ratio)” value is -4.4. Consider A5C G48U C49A C94A, for which the “polymerase ribozyme fitness (log ratio)” value was -2.25. For the variant C4U C114G, the “polymerase ribozyme fitness (log ratio)” value was -2.65. Consider C4G G60A, for which the “polymerase ribozyme fitness (log ratio)” value is -1.91. With C4G G60U, the “polymerase ribozyme fitness (log ratio)” value is -1.18. With C4G G36U the figure was -2.8; with C4U A50G C62U G110A, -1.24; with C4G C73U U92C, -2.66.

For A5C A41U, the “polymerase ribozyme fitness (log ratio)” value is -2.41. For C4U C102U C124U, the “polymerase ribozyme fitness (log ratio)” value is -0.637. With C4U A41C A111U A119C the figure was -6.22; with A5C C13A C94A U112G, -2.97.

For C4U G60A, the “polymerase ribozyme fitness (log ratio)” value is -0.911. Consider C4U A27U C64U A95C A111C A118G, for which the “polymerase ribozyme fitness (log ratio)” value is -6.19.

In the case of A5C G44C A46U U106C, the “polymerase ribozyme fitness (log ratio)” value was -2.77. On to A5C C72A C88A, for which the “polymerase ribozyme fitness (log ratio)” value is -1.74. Regarding A5C A24G G48U G110A C124U U131C, the “polymerase ribozyme fitness (log ratio)” value is -4.58. Consider C4G C28A C40G G48U C49G G63A U96G C114G U116G, for which the “polymerase ribozyme fitness (log ratio)” value was -6.86. As to C4U A43U G63C G93A, the “polymerase ribozyme fitness (log ratio)” value was -3.29.

As to C4U C8A C53U G69U U96G G128C, the “polymerase ribozyme fitness (log ratio)” value is -1.46. In the case of A5C A24G G48U G69U G110A C124U U131C, the “polymerase ribozyme fitness (log ratio)” value was -2.03. Next, C4U G52U G61C C124G U131G: -0.648; C4U A50C A74U C79G G117A: -4.91; C4G C11G C49A G51C G58A C73U C79U: -4.64. For C4U G44U C72A, the “polymerase ribozyme fitness (log ratio)” value was -0.827. Regarding C4U C12A A66C C70A, the “polymerase ribozyme fitness (log ratio)” value was -5.72. Next, C4U G63A U116G A121U G127U: -4.48. For the variant C4U G71U C97U C123A, the “polymerase ribozyme fitness (log ratio)” value was 0.307.

As for C4U A18C, the “polymerase ribozyme fitness (log ratio)” value was -3.99. On to A5C A90U, for which the “polymerase ribozyme fitness (log ratio)” value is -2.01. On to A5C C73G C86G C99U G110A U112G, for which the “polymerase ribozyme fitness (log ratio)” value was -7.21.

As to C4U A5U U59G C64U, the “polymerase ribozyme fitness (log ratio)” value was -3.75. Turning to C4U A6C C13U G48U C49G C53U G113C, the “polymerase ribozyme fitness (log ratio)” value is -3.03.

Values taken from the RNAGym collection of RNA variant scans (doi:10.1073/pnas.2313332121).
